# Results published in US12458691.
# How the values were obtained:
# [1] = target: FP8-KLH (HIV-1 strain BG505); test: BLI (Octet), IgG on the sensor, apparent KD with IgG avidity
# [2] = target: FP8-3HSH (HIV-1 strain BG505); test: apparent KD; Octet BLI, antibody IgG on sensor (method per paragraph 361)
# [3] = target: FP8-1Y12 (HIV-1 strain BG505); test: as above
# [4] = target: FP-LS (Aquifex aeolicus (strain VF5)) (UniProt O66529); test: apparent KD (table head 'Apparent KD value (nM)'); Octet BLI with IgG on the sensor per paragraph 361
# [5] = target: FP8-3HSH (HIV-1 strain BG505); test: BLI (Octet), IgG on the sensor, apparent KD with IgG avidity
# [6] = target: FP8-1Y12 (HIV-1 strain BG505); test: as above
# [7] = target: FP8-TTHc (sulfo-SIAB activation, 0.5:1 molar ratio) (HIV-1 strain BG505); test: Octet, purified conjugate
# [8] = target: FP8-TTHc (MBS activation, 1:1 molar ratio) (HIV-1 strain BG505); test: Octet, purified conjugate
# [9] = target: FP8-TTHc (sulfo-SIAB activation, 1:1 molar ratio) (HIV-1 strain BG505); test: Octet, purified conjugate
# [10] = target: His-tagged fusion peptide (residue 512-521) (HIV-1 strain BG505); test: SPR, Fab over His-tagged fusion peptide on Ni-NTA chip, 1:1 fit
# Sequence of FP8-KLH (HIV-1 strain BG505) (Q10583 17-3414): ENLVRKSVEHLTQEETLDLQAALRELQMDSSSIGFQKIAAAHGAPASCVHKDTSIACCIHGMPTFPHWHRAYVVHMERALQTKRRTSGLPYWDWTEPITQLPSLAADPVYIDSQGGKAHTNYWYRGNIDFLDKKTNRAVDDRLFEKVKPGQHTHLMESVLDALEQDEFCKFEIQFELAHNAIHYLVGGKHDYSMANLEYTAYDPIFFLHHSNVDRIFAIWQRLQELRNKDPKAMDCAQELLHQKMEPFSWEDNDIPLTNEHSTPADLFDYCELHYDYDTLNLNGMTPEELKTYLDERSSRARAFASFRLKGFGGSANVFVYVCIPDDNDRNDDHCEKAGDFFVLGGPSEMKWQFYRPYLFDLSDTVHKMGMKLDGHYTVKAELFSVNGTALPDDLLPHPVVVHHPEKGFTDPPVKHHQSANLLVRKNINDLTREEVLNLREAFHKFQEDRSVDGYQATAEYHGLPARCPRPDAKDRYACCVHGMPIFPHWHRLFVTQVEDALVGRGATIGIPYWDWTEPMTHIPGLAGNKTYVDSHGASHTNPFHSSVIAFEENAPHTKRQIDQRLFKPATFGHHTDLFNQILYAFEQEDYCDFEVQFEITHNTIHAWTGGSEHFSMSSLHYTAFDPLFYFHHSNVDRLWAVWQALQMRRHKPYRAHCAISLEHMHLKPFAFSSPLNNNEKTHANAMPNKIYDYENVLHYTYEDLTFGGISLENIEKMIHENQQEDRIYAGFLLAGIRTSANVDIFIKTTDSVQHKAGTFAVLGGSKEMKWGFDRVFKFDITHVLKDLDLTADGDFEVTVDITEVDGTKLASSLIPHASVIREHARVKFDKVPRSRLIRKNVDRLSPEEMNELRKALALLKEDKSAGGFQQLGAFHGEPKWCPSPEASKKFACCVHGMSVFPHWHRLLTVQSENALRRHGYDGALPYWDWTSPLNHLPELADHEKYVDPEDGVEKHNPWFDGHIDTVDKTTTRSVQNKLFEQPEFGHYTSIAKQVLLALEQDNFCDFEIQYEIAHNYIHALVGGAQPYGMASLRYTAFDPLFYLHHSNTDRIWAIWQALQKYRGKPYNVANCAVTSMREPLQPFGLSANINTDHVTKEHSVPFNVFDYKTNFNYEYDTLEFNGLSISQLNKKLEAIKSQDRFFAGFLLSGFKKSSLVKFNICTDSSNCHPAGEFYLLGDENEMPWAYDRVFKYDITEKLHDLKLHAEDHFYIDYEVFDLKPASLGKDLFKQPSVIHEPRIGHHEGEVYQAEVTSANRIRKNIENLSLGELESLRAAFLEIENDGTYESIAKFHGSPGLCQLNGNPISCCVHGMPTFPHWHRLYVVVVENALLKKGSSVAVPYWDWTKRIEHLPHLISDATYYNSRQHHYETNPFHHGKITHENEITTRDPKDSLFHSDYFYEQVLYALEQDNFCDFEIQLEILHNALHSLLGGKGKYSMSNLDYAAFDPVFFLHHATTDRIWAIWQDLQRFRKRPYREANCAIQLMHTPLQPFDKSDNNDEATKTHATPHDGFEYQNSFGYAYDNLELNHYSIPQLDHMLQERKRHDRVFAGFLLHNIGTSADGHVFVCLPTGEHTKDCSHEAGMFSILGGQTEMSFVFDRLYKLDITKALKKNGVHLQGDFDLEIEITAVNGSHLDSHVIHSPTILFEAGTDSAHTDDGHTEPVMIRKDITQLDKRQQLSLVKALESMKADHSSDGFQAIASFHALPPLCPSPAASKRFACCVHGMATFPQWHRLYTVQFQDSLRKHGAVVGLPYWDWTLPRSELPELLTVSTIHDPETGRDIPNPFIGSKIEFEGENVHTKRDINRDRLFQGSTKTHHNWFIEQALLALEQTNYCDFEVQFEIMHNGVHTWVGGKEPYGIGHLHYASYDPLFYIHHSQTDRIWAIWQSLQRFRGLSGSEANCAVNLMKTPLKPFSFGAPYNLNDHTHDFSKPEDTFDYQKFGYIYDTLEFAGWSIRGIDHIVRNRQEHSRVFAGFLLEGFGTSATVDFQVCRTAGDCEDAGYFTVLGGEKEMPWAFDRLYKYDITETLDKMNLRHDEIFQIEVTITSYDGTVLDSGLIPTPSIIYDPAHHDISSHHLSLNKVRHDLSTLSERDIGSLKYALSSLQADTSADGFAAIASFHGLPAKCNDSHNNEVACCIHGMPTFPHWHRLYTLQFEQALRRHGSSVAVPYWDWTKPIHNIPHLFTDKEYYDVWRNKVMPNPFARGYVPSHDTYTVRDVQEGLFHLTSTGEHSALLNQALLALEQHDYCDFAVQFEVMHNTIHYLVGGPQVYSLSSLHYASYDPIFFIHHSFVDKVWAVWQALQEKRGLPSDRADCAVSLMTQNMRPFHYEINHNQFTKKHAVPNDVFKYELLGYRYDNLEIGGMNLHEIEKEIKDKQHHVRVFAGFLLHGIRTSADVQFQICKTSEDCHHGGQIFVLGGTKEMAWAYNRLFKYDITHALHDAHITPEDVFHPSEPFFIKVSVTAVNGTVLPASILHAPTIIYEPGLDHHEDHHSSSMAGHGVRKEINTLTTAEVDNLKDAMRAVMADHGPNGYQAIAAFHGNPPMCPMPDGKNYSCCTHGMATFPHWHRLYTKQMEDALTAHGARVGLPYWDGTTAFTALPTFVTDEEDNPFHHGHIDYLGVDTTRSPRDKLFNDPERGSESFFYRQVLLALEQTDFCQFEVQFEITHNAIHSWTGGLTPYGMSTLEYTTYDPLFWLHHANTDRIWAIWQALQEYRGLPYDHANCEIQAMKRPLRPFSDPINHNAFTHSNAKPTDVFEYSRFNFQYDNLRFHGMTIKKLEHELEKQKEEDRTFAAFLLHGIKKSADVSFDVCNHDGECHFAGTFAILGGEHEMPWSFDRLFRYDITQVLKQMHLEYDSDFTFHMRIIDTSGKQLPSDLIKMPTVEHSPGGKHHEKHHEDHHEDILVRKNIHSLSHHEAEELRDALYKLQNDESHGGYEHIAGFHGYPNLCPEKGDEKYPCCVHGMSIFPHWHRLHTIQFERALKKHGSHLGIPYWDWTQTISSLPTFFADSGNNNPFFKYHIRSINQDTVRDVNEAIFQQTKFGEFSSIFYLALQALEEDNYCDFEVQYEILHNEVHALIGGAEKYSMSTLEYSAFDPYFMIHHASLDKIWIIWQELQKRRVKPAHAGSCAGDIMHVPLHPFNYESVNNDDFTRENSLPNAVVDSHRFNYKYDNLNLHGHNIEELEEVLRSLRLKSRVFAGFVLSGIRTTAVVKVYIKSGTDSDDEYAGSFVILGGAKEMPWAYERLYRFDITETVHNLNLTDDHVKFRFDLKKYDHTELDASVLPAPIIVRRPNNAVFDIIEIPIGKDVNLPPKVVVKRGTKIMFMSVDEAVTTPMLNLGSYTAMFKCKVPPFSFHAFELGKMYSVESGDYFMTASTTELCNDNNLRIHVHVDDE
# Sequence of FP-LS (Aquifex aeolicus (strain VF5)) (O66529 other isoform, or with tags, fused parts or gaps): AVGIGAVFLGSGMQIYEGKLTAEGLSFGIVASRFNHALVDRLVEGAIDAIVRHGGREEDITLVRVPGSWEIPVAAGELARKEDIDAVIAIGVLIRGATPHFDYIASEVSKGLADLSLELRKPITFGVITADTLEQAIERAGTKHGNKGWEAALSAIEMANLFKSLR
# Sequence of FP8-TTHc (sulfo-SIAB activation, 1:1 molar ratio) (HIV-1 strain BG505) (P04958 865-1315, tags left off): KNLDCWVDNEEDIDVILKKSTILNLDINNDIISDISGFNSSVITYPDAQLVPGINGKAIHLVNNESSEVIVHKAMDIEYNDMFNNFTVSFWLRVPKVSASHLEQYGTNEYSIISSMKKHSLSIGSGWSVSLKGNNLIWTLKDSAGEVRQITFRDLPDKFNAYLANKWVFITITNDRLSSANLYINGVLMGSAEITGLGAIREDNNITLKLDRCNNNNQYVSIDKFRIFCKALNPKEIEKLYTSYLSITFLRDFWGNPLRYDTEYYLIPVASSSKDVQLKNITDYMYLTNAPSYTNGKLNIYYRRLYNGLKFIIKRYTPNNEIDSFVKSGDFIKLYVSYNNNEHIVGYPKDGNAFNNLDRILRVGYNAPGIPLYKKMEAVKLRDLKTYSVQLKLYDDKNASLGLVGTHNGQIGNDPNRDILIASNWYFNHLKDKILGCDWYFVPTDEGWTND
# Sequence of FP8-TTHc (sulfo-SIAB activation, 0.5:1 molar ratio) (HIV-1 strain BG505) (P04958 865-1315, tags left off): as above
# Sequence of FP8-TTHc (MBS activation, 1:1 molar ratio) (HIV-1 strain BG505) (P04958 865-1315, tags left off): as above
substance,measurement,setting,value
ACS202 (antibody),Kd,[1],< 0.001 nM
PGT151 (antibody),Kd,[2],< 0.001 nM
same,Kd,[3],< 0.001 nM
same,Kd,[4],< 0.001 nM
same,Kd,[5],47.2 nM
same,Kd,[6],< 0.001 nM
same,Kd,[7],3.6 nM
same,Kd,[8],2.3 nM
same,Kd,[9],2.8 nM
VRC34.01 Fab,Kd,[10],6.17 nM
same,koff,[10],0.00924 s⁻¹
same,kon,[10],1.5e+06 M⁻¹ s⁻¹
